# Results as given in IntAct's records for PubMed 21209328.
# B1: PEP-dependent dihydroxyacetone kinase, ADP-binding subunit DhaL (Escherichia coli (strain K12)), P76014 (parent)
# chain: MSLSRTQIVNWLTRCGDIFSTESEYLTGLDREIGDADHGLNMNRGFSKVVEKLPAIADKDIGFILKNTGMTLLSSVGGASGPLFGTFFIRAAQATQARQSLTLEELYQMFRDGADGVISRGKAEPGDKTMCDVWVPVVESLRQSSEQNLSVPVALEAASSIAESAAQSTITMQARKGRASYLGERSIGHQDPGATSVMFMMQMLALAAKE
# partner: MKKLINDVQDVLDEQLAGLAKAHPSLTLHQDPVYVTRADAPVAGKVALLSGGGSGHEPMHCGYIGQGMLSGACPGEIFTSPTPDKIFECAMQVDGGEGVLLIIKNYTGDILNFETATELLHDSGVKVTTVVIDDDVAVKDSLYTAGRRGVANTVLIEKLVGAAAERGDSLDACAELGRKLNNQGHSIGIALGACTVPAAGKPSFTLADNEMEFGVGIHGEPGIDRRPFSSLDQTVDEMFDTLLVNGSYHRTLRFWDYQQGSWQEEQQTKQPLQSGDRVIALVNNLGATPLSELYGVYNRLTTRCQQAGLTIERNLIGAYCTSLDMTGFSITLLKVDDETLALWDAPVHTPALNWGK
# Variants of: B1
# Details: with dhak_ecoli dhaK
row,Variant,effect of a mutation on the interaction
1,MSLSRTQIVNWLTRCGDIFSTESEYLTGLDREIGDADHGLNMNRGFSKVVEKLPAIADKDIGFILKNTGMTLLSSVGGASGPLFGTFFIRAAQATQARQSLTLEELYQMFRDGADGVISRGKAEPGDKTMCDVWVPVVESLRQSSEQNLSVPVALEAASSIAESAAQSTITMQARKGEASYLGERSIGHQDPGATSVMFMMQMLALAAKE [R178E],disrupting interaction strength
